In patent US20240350597A1, “PROTEASE INHIBITORS” (University College Dublin, priority 2023, published 2024):
Entries after “also recorded” stand apart in the source; their conditions may differ. Where two headings read alike, the source gives them in different places.

Experiments:
[1] = tested on: SARS-CoV-2 Spike pseudoparticles; assay type: cell-based
TMPRSS2 [2] = target: T1, TMPRSS2 (Homo sapiens, UniProt O15393); assay: Kinetic analysis of TMPRSS2 inhibition under pseudo first-order conditions; assay type: biochemical; parameters: purchased Cusabio Technology; settings: room temperature, TMPRSS2 0.1 μM
T1 sequence (O15393 whole entry): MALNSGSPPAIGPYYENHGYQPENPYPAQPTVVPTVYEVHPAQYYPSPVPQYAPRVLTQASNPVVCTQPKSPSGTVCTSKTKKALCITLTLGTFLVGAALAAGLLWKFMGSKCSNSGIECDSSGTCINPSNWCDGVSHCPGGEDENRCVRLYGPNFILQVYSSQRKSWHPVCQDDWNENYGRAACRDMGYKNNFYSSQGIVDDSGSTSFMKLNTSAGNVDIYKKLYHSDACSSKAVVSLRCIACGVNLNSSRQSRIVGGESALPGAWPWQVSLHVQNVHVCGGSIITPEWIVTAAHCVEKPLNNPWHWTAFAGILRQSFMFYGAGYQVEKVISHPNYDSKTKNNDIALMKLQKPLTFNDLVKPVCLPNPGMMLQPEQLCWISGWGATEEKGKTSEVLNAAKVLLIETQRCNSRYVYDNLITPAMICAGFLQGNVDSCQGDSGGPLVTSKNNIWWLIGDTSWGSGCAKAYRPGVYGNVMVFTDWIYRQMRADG
Procedure: For kinetic analysis of TMPRSS2 inhibition, second order inhibition rate constants were determined under pseudo first-order conditions using a range of serpin concentrations, and with TMPRSS2 buffer and substrate detailed above. Reactions were performed at room temperature and residual activity was determined at intervals over a 10 min incubation with a molar excess of serpin over protease. Concentration ranges were 0.12 to 0.44 μM for B3-TMP and 1.0 to 4 μM for A1AT. The apparent first order rate constant kobs for each concentration was calculated from the slope of the natural log of residual activity over time (−kobs). These values were plotted against inhibitor concentration and linear regression analysis of this plot gave the second order inhibition rate constant k2, with standard error determined.

Cathepsin L (CatL) = target: T2, Cathepsin L (CatL) (Homo sapiens, UniProt P07711); assay: Protease inhibition assay, fluorogenic substrate cleavage, cathepsin L; assay type: biochemical; settings: excess of serpin over protease, 2 min incubation, substrate Z-FR-AMC
T2 construct: gift: Dr Matej Vizovišek, Jozef Stefan Institute, Slovenia
T2 sequence (P07711 114-333): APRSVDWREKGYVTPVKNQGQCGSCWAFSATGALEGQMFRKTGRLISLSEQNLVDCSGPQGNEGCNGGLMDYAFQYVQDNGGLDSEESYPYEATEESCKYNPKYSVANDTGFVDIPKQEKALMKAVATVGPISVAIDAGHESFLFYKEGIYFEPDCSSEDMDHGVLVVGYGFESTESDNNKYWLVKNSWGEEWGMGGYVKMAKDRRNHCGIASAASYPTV
Procedure: By monitoring the linear rate of cleavage of fluorogenic substrates, protease specificity of purified proteins was assessed. CatL was gifted by Dr Matej Vizovišek, Jozef Stefan Institute, Slovenia. TMPRSS2 was obtained from Cusabio Technology and furin from BioLegend.
Proteases were incubated with a 1:5 molar excess of serpin and residual activity was determined by cleavage of fluorescent substrates. All assays were carried out at room temperature in 96-well plates in a total volume of 100 μL. Residual proteolytic activity was measured using a SpectraMax M3 Microplate Reader (Molecular Devices, Inc), using the appropriate buffer and synthetic fluorogenic peptide substrate: Cathepsin L, Z-FR-AMC (10 μM), 50 mM Na-Acetate, 100 mM NaCl, 1 mM EDTA, pH 5.5; Chymotrypsin, Z-AAPF-AMC (5 μM), PBS, 1 mg/ml BSA; Elastase, Met-O-Suc-AAPV-AMC (10 μM), 50 mM Tris, 120 mM NaCl, pH 8.0, 1 mg/ml BSA; Furin, Boc-RVRR-AMC (50 μM) 20 mM Tris, 1 mM CaCl2), 0.5% Brij-35, pH 9; TMPRSS2, Boc-QAR-AMC (80 μM), PBS; Trypsin, Z-FR-AMC (10 μM), 50 mM Tris, 0.2 mM DTT, 1 mg/ml BSA. The excitation and emission wavelengths used were 380 nm and 460 nm respectively. All assays were performed in triplicate.

TMPRSS2 [3] = target: T1, TMPRSS2; assay type: biochemical; parameters: purchased Cusabio Technology
Omicron BA.5 SARS-CoV-2 = assay type: cell-based

Molecule	inhibition of pseudoparticle entry (in words) ([1]; 6.25 μM to 50 μM, A549-ACE2-TMPRSS2 cells)	inhibition of pseudoparticle entry ([1]; 12.5 μM, A549-ACE2-TMPRSS2 cells)	inhibition of pseudoparticle entry ([1]; 50 µM)	second order inhibition rate constant k2 of TMPRSS2 inhibition (TMPRSS2 [2])	CatL inhibition (Cathepsin L (CatL))	selectivity for TMPRSS2 versus elastase, trypsin, chymotrypsin (in words) (TMPRSS2 [3])	inhibition of SARS-CoV-2 Omicron BA.5 infection (in words) (Omicron BA.5 SARS-CoV-2)
B3-TMP: SerpinB3 variant with RCL residues 350 to 354 (P4 to P1′) replaced by IQFRV to inhibit TMPRSS2; SEQ ID No. 6 (protein) MNSLSEANTKFMFDLFQQFRKSKENNIFYSPISITSALGMVLLGAKDNTAQQIKKVLHFDQVTENTTGKAATYHVDRSGNVHHQFQKLLTEFNKSTDAYELKIANKLFGEKTYLFLQEYLDAIKKFYQTSVESVDFANAPEESRKKINSWVESQTNEKIKNLIPEGNIGSNTTLVLVNAIYFKGQWEKKFNKEDTKEEKFWPNKNTYKSIQMMRQYTSFHFASLEDVQAKVLEIPYKGKDLSMIVLLPNEIDGLQKLEEKLTAEKLMEWTSLQNMRETRVDLHLPRFKVEESYDLKDTLRTMGMVDIFNGDADLSGMTGSRGLVLSGVLHKAFVEVTEEGAEAAAATAVIQFRVSPTSTNEEFHCNHPFLFFIRQNKTNSILFYGRFSSP	reduce SARS-CoV-2 (D614G) pseudoparticle entry	70%	90%	(9±1.1)×10^3 M^−1 s^−1	81%	better selectivity for TMPRSS2 than A1AT	greater inhibitor for both viral strains than WT-SerpinB3; also recorded: inhibit Omicron BA.5 infection to a greater extent than the B3-WT
B3-WT: Wild type recombinant SerpinB3 (SCCA-1), 44.5 kDa cross-class inhibitor of cysteine proteases including CatL; SEQ ID No. 5 (protein, listed as Homo sapiens) MNSLSEANTKFMFDLFQQFRKSKENNIFYSPISITSALGMVLLGAKDNTAQQIKKVLHFDQVTENTTGKAATYHVDRSGNVHHQFQKLLTEFNKSTDAYELKIANKLFGEKTYLFLQEYLDAIKKFYQTSVESVDFANAPEESRKKINSWVESQTNEKIKNLIPEGNIGSNTTLVLVNAIYFKGQWEKKFNKEDTKEEKFWPNKNTYKSIQMMRQYTSFHFASLEDVQAKVLEIPYKGKDLSMIVLLPNEIDGLQKLEEKLTAEKLMEWTSLQNMRETRVDLHLPRFKVEESYDLKDTLRTMGMVDIFNGDADLSGMTGSRGLVLSGVLHKAFVEVTEEGAEAAAATAVVGFGSSPTSTNEEFHCNHPFLFFIRQNKTNSILFYGRFSSP	–	–	–	–	95%	–	reductions in SARS-CoV-2 infection
